Source: the DeepSol protein solubility set

assay: soluble on expression in E. coli; label from the status in PepcDB or PDB records

Sequence | soluble on expression in E. coli
MAHHHHHHMSRSSLIFENNNDNNEKKKRKLFQDEYNYQSCYPLSYLNVYNNNNNNNHNSNNNSNNDNNRIYDYAYSQSYNYTYDQTYNDVYNKIYNDSKNIAQNVLNVQVNEEPYDKSLNNSHTTYPFSNIINSNQLNSNILNNNEMIDMRNFYENGNFVNPMIENKDQNQFNEPNKNNLNNTMANVNNINNINNIQFDKSLLINCIDVLLNFMNYNNLKDTITEETLHENLINLRFYILRLNGGKVSQKKITEYFHKM | not soluble
MVSMNMFEEVEVEAYVYPTEDIEKVKKAMLNLVPGLKFEAFDKGEYMILVGRTRDKRALQRLYELFRGQQILDTARMMLEEGYFGEEIIIKVHKQVAYVGKVNFNEESPLGPITIIIRTKEPQKLMKWLAPRTKDGVPIEAAALEHHHHHH | not soluble
MVPEVFAQARLRMDQLTKPPRALGYLEEVALRLAALQGRVKPELGRGAVVVAAADHGVVAEGVSAYPQEVTRQMVLNFLRGGAAINQFALAADCAVYVLDVGVVGELPDHPGLLKRKVRPGTANLAQGPAMTPEEAERALLAGREAARRAIAEGATLLAAGDMGIGNTTAAAALTAALLGLPPEAVVGRGTGVGEEGLRRKRQAVARALARLHPGMGPLEVAAEVGGIELVAIAGIYLEGYEAGLPLVLDGFPVTAGALLAWKMAPGLRDHLFAGHLSREPGHRHQLEALGLRPLLDLDLALGEGTGAVLAMPLLRAAARILHMATFQEAGVSRG | soluble
MAHHHHHHMESQKERGNAAYREKRYRDAINAYTAAIELDLTNVRMVATLRANQAAAKMELKEYSSALLDCEFAIQNGVNSAKLYARRARIHEALNNYDDALRDIQKASEMDGSYQREFQRTKASSKKAMRKDYYKILDLPPNESDDAQIKRAYKKACLRWHPDKWANAGPEEKTHAEKMFKDVGEAFSILSDAKKKRMYDNGMIDNAVEGAGESGFSGFPGQDEALMEMMNRMFFTGGGMSGGFGFNGFPQGRRQQYQQSYTFQFF | not soluble
MIKFNIRGENVEVTDAIRAYVEDKIGKLDKYFNDGHEVTAYVNLKVYSEKRAKVEVTLPAKNVTLRAEDTSQDMYSSIDFVEEKLERQIRKYKTRMNRKPRNAVPTGQAFGDEFAPLEKADEVAEDHVDIVRTKHVALKPMDAEEAVLQMDMLGHDFYVFTDADSNGTHVVYRRTDGRYGLIETELEHHHHHH | soluble
DQVDVKDCANNEIKKVMVDGCHGSDPCIIHRGKPFTLEALFDANQNTKTAKIEIKASLDGLEIDVPGIDTNACHFVKCPLVKGQQYDIKYTWNVPKIAPKSENVVVTVKLIGDNGVLACAIATHGKIRD | soluble
MGSDKIHHHHHHGGFTGAIADFPTAIHRAVKGQMQTTTDYLNGEQTEYDESVFTGEYHYYYEKLSDDDKLIYRQIYAMMQKRMDGISLNTTDTDNVSRIQQFVLLDNPQFFYIEKSQYTVRNSIIFSPVYNMSESDIDNAISTISGYVSACMAGIDEGASDYDKAVHFYEYVIEHAEYEENSPHNQDMYSAVLGRTVCQGYAMMFKYLCDRAGISSLIVTGTTSDANHAWNMVYLDGAWCAVDCTYGDGDYLGKGISYSWFGVPLDVVKLTRTLDNEDMLPQEASVEDDYYYRNGLYFTSYDLKVLQGMTTSSNYITFKFSDRETYDTACHSLFDKGDYKYLIPTARGGTITYMQEPNSLAVFIHIELGS | not soluble
MTNEEPKSPEKVERRRSTQEDSEKDKKRSRDDRKTEKRTHDRDRKRNRSRSRSRSRSPKRSRRDKKEEKQEQEEEDGEIRDTTPPAPEKPRQLTARELERQRIIEEELKSGKHDEHDDDPVWSMKKAQAEKKSRMCPYLDTIDRSVLDFDFEKQCSVSLSHQNVYACMVCGKYFQGRGTNTHAYTHALETDHHVFLNLQTLKFYCLPDNYEVIDPSLEDIKYVLKPTYTKEMIASIDKQSKMVRAYDDSTYFPGVVGLNNIKANDYCNAILQALSAVRPLRNWFLKESNYTSIKRPPGDKLTLLPQRFGELIRKLWNPRALRTHVSPHEMLQAVVVCSNKKFQFIKQNDAADFMLFLLTTLHSALNGTDKKPSIISKTFRGRMRQYSRRVIPAEDTDEEKYMKLRMPEYQEKVIESPFLYLTLDLPSAPLYRDVQLQNIIPQVPLSTLLEKFDGKTEKEYPTYNDNNIMKRFELLQLPDFLIITYKRFQKNQWFVEKNPTIVNFPIANVDFYDCLAKDARANHKYTTYDLVANVVHEGTFKDGNYRIQIVHEGSGKWFELEDLHVKDLLPQMIVLAESYIQIWRLNKEQTRDERAEGEPMQN | not soluble
MSTDEWRTERDPLVSQDRFLWEKVCCTIIPLHKKRYSSFAKEVVNVSKDAVKINNKKQYITQILPLSQANQQKLTEVKREKKAIAQTHKIHFFDRVVHRKIAKGHYSIEARLDLHGCMQEEAYFFLKKFLQSSQQNGLRYVLVITGKGRSPGSNGVLYQSVPHWLSTPAFRYYVHAFEQAARQHGGDGALYVRLRRFLPGKGYDVV | not soluble
MATKRDYYEILGLSKDSSVEDIKKTYRKLALQYHPDRNKEPGAEEKFKEISEAYAVLSDAEKRAQYDRFGHAGIDNQYSAEDIFRGADFGGFGDIFEMFFGGGRRGGPMGPRRGSDLQYDLYVTFEEAAFGVRKDIDIPRTERCSTCSGTGAKPGTSPKRCPNCGGTGQVRTTRSTLGMQFVSTTTCSACHGRGQVVESPCPTCSGAGRVRSRRKMSVNVPAGADSGMTLRLSGEGDAGEPGAPSGDLYIIVHVMEHKYFKRVDYDVISELPISFTQAALGADIMVDTLYGKVKMNIPSGTQTHSVFRLKDKGIQRLQGHGKGDQLVRVIIRTPTKLTQEQKDLLHQFEYLSNGKKPEAEERSRSDKQKSEKPRKSKGLFEKVKDAFES | not soluble
MELIRWAIELGESVHGNTYEELMPLLDYYYDRDHLKAYCIANLLLNMDVLDEDRERIELRRCIAAYYAGLYKVARKHANELVLKHPDVDLYKNNLRLMEVYLNKEYDYCLFICPKTYGSFIDIARALKWRLEQEGNTVIISETILENVKNTVVFGAHTYAYNPNLLPKDAIVYNLEQLYEGSPYAHPLYLILLKDRVIWDYSKQNIEWLKQKGVGKEIKHVEMNYAPTLEIKKDAFEDEIIEDIDILFIGALNPRRQAIFDHLKAIAPNLNIVFKNNAWGIVRNELIARAKIILNIHFYLSGILETPRVSYAVANKKFIISENSNPEDEVEWPGIVFTPYEKIIENVMKYIELPEERKRLAEKAYNHFEANESLGTLSMRDETK | not soluble
MLAYPHLFTPLDLGFTTLKNRILMGSMHTGLEELPDGPQRLAAFYAERAAGGVGLIVTGGIAPNMKGGVYQGASVLNDAAQIPHHQVVTEAVHQAGGKIALQILHAGRYSYQKHPVAPSALQAPINPFVPQALSHEEILQTIADFAHCAQLAKQAGYDGVEIMGSEGYLINQFLTARTNQRDDEWGGDFTHRMRFAVEIVRAVRQATGHDFILIYRLSMLDLVEEGSNWVEIEQLAQAVEQAGATVINTGIGWHEARIPTIATMVPRAGFSWVTRKLMGKVNIPLITTNRINDPAVAEQVLADGCADMVSMARPFLADAAFVQKAAQGRADEINTCIGCNQACLDQIFDGKLTSCLVNPRACRETEMPELPTDAPKRLAVVGAGPAGLAFAVTAARRGHQVTLFDAAAEIGGQFNIAKQIPGKEEFYETLRYFRRQLVLNGVTLQLNTLVQVKQLAEFDEVILACGIQPRLPCINGIDHPKVLTYLDVLRDKKPVGQRVAIIGAGGIGFDTAEYLSQSGDSPRFDSTAFSTEWGIDQDLAHRGGLSPAGAKVPPSPRQIFLLQRKASKVGEGLGKTTGWIHRTSLAMRGVKMLNSVSYEAIDDKGLHIIRAEQACCLPVDTIIICAGQEPRRELHQPLLDMGKTVYLIGGADKAVELDARRAIDQGTRLALAI | not soluble
MGSDKIHHHHHHMTQTDSLPGVQATVQDMGERARRAARVLRSLPTGRKVQALRALAAELRAREAGILAANAQDVQAAEAAGLPAPLVDRLRLSAGALAAIARDVEAVAALPDPVGEQTDEKTLPSGIRVSQRRVPLGVLGVIYESRPNVTVDVAALALMSGNAAILRGGKETVNSNAALEDAIHAALNREGLPADAVQVIRDPDRARMLELLRLDESVDAIIPRGGAGLHRFCVENATVPVIVGGIGVVHIYLDGSFVQTPQDVQIAAALIRNAKTQKPSACNALDTLLIDRAALAALPDVVRPLLESGVEVRADAEAQAALAGAGLNVTSAQLGDYGTEFLALVASLRTVSGLDEALDFIAERGGHTDVILTRDPAQAERFVQDVDSAAVMVNVSPRFNDGGQLGLGAEVAISTQKLHARGPMGLRELTTSKWVVRGEGQVRD | not soluble
MHHHHHHSSGVDLGTENLYFQSMPRIDADLKLDFKDVLLRPKRSSLKSRAEVDLERTFTFRNSKQTYSGIPIIVANMDTVGTFEMAAVMSQHSMFTAIHKHYSLDDWKLFATNHPECLQNVAVSSGSGQNDLEKMTSILEAVPQVKFICLDVANGYSEHFVEFVKLVRAKFPEHTIMAGNVVTGEMVEELILSGADIIKVGVGPGSVCTTRTKTGVGYPQLSAVIECADSAHGLKGHIISDGGCTCPGDVAKAFGAGADFVMLGGMFSGHTECAGEVIERNGRKLKLFYGMSSDTAMNKHAGGVAEYRASEGKTVEVPYKGDVENTILDILGGLRSTCTYVGAAKLKELSRRATFIRVTQQHNTVFS | soluble
MIVMTQVRLSELVAPSFYEIHNDIKHNRYTHYWLKGGRGSTKSSFVSIEIILGVMKDPNANAVALRKVKETIKDSVFEQLVWAIEKLKVTEYWEIKHNPMELTYLPTGQKILFRGADKPRKIKSIKVSRGYVKFIWYEEVDEFLGMEEIRIINQSLMRGGEQFVVFYTYNPPNRVNAWVNEEILIDRPDRKVHHSTYLTVPRDWLGEQFFIEAEHLKKVNEKAYRHEYLGEVTGTGGEVFTNVKARKINDEEIKAFDRIKRGLDFGYAVDPAAYIVCHFDKTRRRLYIFHEIFQVGLSNRKLAELIKKENKSNKLVVADSAEPKSIAELRGYGINIRGAKKGPDSVEYGIKFLQDLEEIIIDPERCPNTLREFVNYELEKDKDGNFKAEFPDKNNHTIDAVRYALEDDMRTGGLSILK | soluble
MGHHHHHHENLYFQGMKKEKVEQILAEFQLQEEDLKKVMRRMQKEMDRGLRLETHEEASVKMLPTYVRSTPEGSEVGDFLSLDLGGTNFRVMLVKVGEGEEGQWSVKTKHQMYSIPEDAMTGTAEMLFDYISECISDFLDKHQMKHKKLPLGFTFSFPVRHEDIDKGILLNWTKGFKASGAEGNNVVGLLRDAIKRRGDFEMDVVAMVNDTVATMISCYYEDHQCEVGMIVGTGCNACYMEEMQNVELVEGDEGRMCVNTEWGAFGDSGELDEFLLEYDRLVDESSANPGQQLYEKLIGGKYMGELVRLVLLRLVDENLLFHGEASEQLRTRGAFETRFVSQVESDTGDRKQIYNILSTLGLRPSTTDCDIVRRACESVSTRAAHMCSAGLAGVINRMRESRSEDVMRITVGVDGSVYKLHPSFKERFHASVRRLTPSCEITFIESEEGSGRGAALVSAVACKKACMLGQ | soluble
MSPLTTFLTDAQQQTLHQLIVSARDSGANEEMVKESMDEYLAQILSPDRLQELKTAHDEFEAQRRGKRAAISASDKPEPKKVFDIIDQFTSDYQKFYEESSAVRNRNNIN | soluble
METLSNIQCFVRSAEAGSFAEAARRLGLTPAGVGKNVARLESNLGVRLFQRSTRRLTLTEAGERFLQEVGGSLEGIQTALANVSSVGNQPSGTLKVSMGLAFGRDYILPLLGEFLERYPDIVPDWHFDNRQVDLIGEGFDAAIGGGFELPPGVVARNLTPGHLILLASPTYLRDKPPIRHPGDLGGFDGIRIRSPQTGRVRSWPLRRRNGEEAPIELRERMTMSDPEATCEVAAMGLGITLVCMQHAYAYLESGALVRVLPDWYVDAGNTSLYYAANKLLPAKTRVFVDFVVDYFRRQDLARRFSAFPTG | not soluble
MSQLFVRTGIHFSSSQQALEHIGAEMLARGVVHDSYPAALLEREATFPTGIALEKHAVAIPHCEAIHAKSPAIYLIRPDMPVSFQRADDDGEIDVSLIIALIVENPAAQLKLLRRLFSELQNPHTLEALLAASDDRLPVRFQQLILEPELSAVAS | not soluble
